One molecule from PMC9067375, “Biochemical and crystallization analysis of the CENP-SX–DNA complex” (Acta Crystallographica. Section F, Structural Biology …, 2022) can be followed below.

The assay has as its target T1, CENP-S (MHF1), chicken, full-length (Gallus gallus).
T1 construct: CENP-S (MHF1), Gallus gallus, from cDNA; called full-length CENP-S; source: E. coli One Shot BL21(DE3) pLysS RARE2; prepared according to previous reports
T1 chain: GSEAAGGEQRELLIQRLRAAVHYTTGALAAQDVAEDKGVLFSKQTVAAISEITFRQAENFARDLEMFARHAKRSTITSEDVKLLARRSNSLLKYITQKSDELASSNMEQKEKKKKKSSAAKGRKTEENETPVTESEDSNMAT
Kind of assay: SDS-PAGE of the contents of crystals; crystals grown from the FANCM–CENP-SX pentamer (50 µM) with dsDNA in about 30% 1,4-dioxane, 293 K; crystals, solution and film analysed by 15% SDS–PAGE, Coomassie Brilliant Blue. The note with it: both partners purified.

B1: CENP-X (MHF2), chicken (natural protein, Gallus gallus)
chain: GYEEREGGFRKETVERLLRLHFRDGRTRVNGDALLLMAELLKVFVREAAARAARQAQAEDLEKVDIEHVEKVLPQLLLDFV
notes: CENP-X (MHF2), Gallus gallus, from cDNA; source: E. coli One Shot BL21(DE3) pLysS RARE2; prepared according to previous reports
Turning to B1, the binding result was “binds”.
